The experiment has as its target 2aba_human PPP2R2A (UniProt P63151).

The record followed here is IntAct's records for PubMed 26894577.

Chain of UniProt P63151 (P63151 whole entry): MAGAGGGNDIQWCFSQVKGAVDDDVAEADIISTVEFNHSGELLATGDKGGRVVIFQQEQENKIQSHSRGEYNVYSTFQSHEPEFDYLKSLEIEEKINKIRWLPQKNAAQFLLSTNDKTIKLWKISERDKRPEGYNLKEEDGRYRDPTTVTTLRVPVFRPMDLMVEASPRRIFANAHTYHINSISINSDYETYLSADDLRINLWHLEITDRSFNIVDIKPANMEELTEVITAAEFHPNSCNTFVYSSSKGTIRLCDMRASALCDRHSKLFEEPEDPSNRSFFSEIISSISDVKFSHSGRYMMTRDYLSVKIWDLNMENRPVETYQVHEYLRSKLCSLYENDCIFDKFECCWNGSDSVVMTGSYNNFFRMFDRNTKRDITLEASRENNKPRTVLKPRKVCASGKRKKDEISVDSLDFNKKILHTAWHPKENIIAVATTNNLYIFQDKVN

“Leucine-rich repeat serine/threonine-protein kinase 2 (Homo sapiens), Q5S007 R1441C”: the “effect of a mutation on the interaction” value is on record as “with no effect”.
